Experimental data as given in patent US20240352438A1, “MEANS AND METHODS FOR DETOXIFYING OCHRATOXIN A” (DSM Austria GmbH, priority 2021, published 2024).
Where a chain is given by its changes, count along the chain named. Names may count otherwise.

B1: I308V/V355L: variant of the enzyme of SEQ ID NO: 318 having the mutation combination I308V/V355L (protein)
chain: MTTRTRILTAFLSLLAANACAADAAPAAPHTVVLRAARMFDGASGKLVDHPQLTIVGNKIVRIAQGDKAEVPAGAEVVDLGDATLLPGFIDAHVHLSGQSSDNWYGDFFDNMMRFPAEQALYGAYYARITLEAGFTSVRDVGSTDWVALGLRNAIDAGKVPGPRMLVSNYAVGSTGGHADQDPIPPHKLPLAGPLQGVCNGPEECRAAVRYQIKYGANVIKFMPSGGVLSLSDPVDAPELSQDEMNAVIGESHAWGRKVAAHAHGDKAAKMAVAAGVDSIEHGSFIEDDTLRAMKAKNVYLVPTISAVAHVEEKIGTFPPVIAEKGRAAAAHLRQTFRHAVQIGVPIALGTDAGLGAHGSNAREFRYMVENGLTPAQALLAGTANAARLLGTFDRVGTLEAGKLADVVAVPGNPIADITVTERPLFVMKDGVVVRRDAVR
modifications: exemplary polypeptide
B2: F318Y/V355L: variant of the enzyme of SEQ ID NO: 318 having the mutation combination F318Y/V355L (protein)
chain: B1 chain with V308I, F318Y
modifications: exemplary polypeptide
B3: 204 (protein)
chain: B1 chain with V308I, I322Q, L355V
modifications: exemplary polypeptide
B4: 236 (protein)
chain: B1 chain with S284D, V308I, L355V
modifications: exemplary polypeptide
B5: 191 (protein)
chain: B1 chain with V308I, G354T, L355V
modifications: exemplary polypeptide
B6: 171 (protein)
chain: B1 chain with A171P, G354A, L355V
modifications: exemplary polypeptide
B7: 185 (protein)
chain: B1 chain with V308I, A330V, L355V
modifications: exemplary polypeptide
B8: 233 (protein)
chain: B1 chain with D233S, V308I, L355V
modifications: exemplary polypeptide
B9: 205 (protein)
chain: B1 chain with V308I, I322S, L355V
modifications: exemplary polypeptide
B10: 222 (protein)
chain: B1 chain with K188D, V308I, L355V
modifications: exemplary polypeptide
B11: 172 (protein)
chain: B1 chain with A171P, V308I, F318Y, G354A, L355V
modifications: exemplary polypeptide
B12: 199 (protein)
chain: B1 chain with W104L, V308I, L355V
modifications: exemplary polypeptide
B13: 161 (protein)
chain: B1 chain with V308A, G354A, L355V
modifications: exemplary polypeptide
B14: 226 (protein)
chain: B1 chain with G226P, V308I, L355V
modifications: exemplary polypeptide
B15: 212 (protein)
chain: B1 chain with H50P, V308I, L355V
modifications: exemplary polypeptide
B16: 223 (protein)
chain: B1 chain with K188E, V308I, L355V
modifications: exemplary polypeptide
B17: 178 (protein)
chain: B1 chain with V308A, F318Y, G354A, L355V
modifications: exemplary polypeptide
B18: 229 (protein)
chain: B1 chain with S230P, V308I, L355V
modifications: exemplary polypeptide
B19: 228 (protein)
chain: B1 chain with S230D, V308I, L355V
modifications: exemplary polypeptide
B20: 176 (protein)
chain: B1 chain with I184V, G354A, L355V
modifications: exemplary polypeptide
B21: 170 (protein)
chain: B1 chain with A171P, V308A, G354A, L355V
modifications: exemplary polypeptide
B22: 215 (protein)
chain: B1 chain with N103L, V308I, L355V
modifications: exemplary polypeptide

Experiment: OTA detoxification activity assay (specific activity, fluorescence reduction ex/em 390/450 nm)
Assay type: biochemical
Conditions: pH 6
Description: To determine the specific activity of recombinant target polypeptides produced e.g. as described in Example 2 above in units per liter (U/L), ochratoxin A (OTA) detoxification activity assays were performed. One unit is defined as the amount of enzyme necessary for degradation of 1 μmol or OTA in 1 min when using a starting OTA concentration of […].
OTA detoxification activity assays were set up in a final volume of the reaction mixture of […], containing the recombinant enzyme preparation (preferably diluted to yield a volumetric activity of 1-10 mU/L), and 200 ng/mL OTA in 100 mM sodium phosphate buffer.
Specific activities were determined at pH 6.0 and pH 7.5. As soon as all components of the reaction mixture were mixed, OTA degradation was followed at 37° C. on a fluorescence spectrophotometer (BioTek Synergy H1 MFD Multimode microplate reader) by following the reduction in fluorescence at ex/em 390 nm/450 nm. For work performed at pH 6.0 and 7.5, a 100 mM sodium phosphate buffer was used.
For calculation of the specific activity, the initial linear part of the recorded fluorescence reduction curve was used. In addition to the fluorescence-based method described above, OTA degradation was also determined by using the HPLC-MS method as described by Dellafiora et al. 2020, Toxins 12, 258, essentially confirming the fluorescence-based results. Genes encoding either of the indicated SEQ ID NOs are expressed as described herein and the specific activities for the obtained polypeptide preparation are exemplarily shown in Table 8. Analogously, enzymatic activities using either ochratoxin B, C or TA as substrate or can be found.

Row | Molecule | % of the activity of the non-mutated enzyme of SEQ ID NO: 318 at pH 6
1 | B1 | 209%
2 | B2 | 197%

Same assay, conditions: pH 6.0; SEQ ID NO: 1 = 100%

Row | Molecule | Specific OTA detoxification activities in % compared to the enzyme of SEQ ID NO: 1, pH 6.0
3 | B3 | 41%
4 | B4 | 19%
5 | B5 | 21%
6 | B6 | 69%
7 | B7 | 32%
8 | B8 | 11%
9 | B9 | 52%
10 | B10 | 8%
11 | B11 | 62%
12 | B12 | 9%
13 | B13 | 132%
14 | B14 | 19%
15 | B15 | 46%
16 | B16 | 14%
17 | B17 | 85%
18 | B18 | 21%
19 | B19 | 23%
20 | B20 | 112%
21 | B21 | 49%
22 | B22 | 27%

Same assay, conditions: pH 7.5

Row | Molecule | % of the activity of the non-mutated enzyme of SEQ ID NO: 318 at pH 7.5
23 | B1 | 189%
24 | B2 | 138%

Same assay, conditions: pH 7.5; SEQ ID NO: 1 = 100%

Row | Molecule | Specific OTA detoxification activities in % compared to the enzyme of SEQ ID NO: 1, pH 7.5
25 | B3 | 24%
26 | B4 | 15%
27 | B5 | 28%
28 | B6 | 37%
29 | B7 | 18%
30 | B8 | 17%
31 | B9 | 24%
32 | B10 | 20%
33 | B11 | 70%
34 | B12 | 34%
35 | B13 | 110%
36 | B14 | 22%
37 | B15 | 17%
38 | B16 | 16%
39 | B17 | 88%
40 | B18 | 15%
41 | B19 | 19%
42 | B20 | 95%
43 | B21 | 32%
44 | B22 | 20%
